For one substance, luciferase activity (CBF1 binding site reporter, wild-type/mutant, relative to beta-galactosidase) results are on record in patent US20080045445A1.

The target in the assay is centromere-binding factor 1 (CBF1) (human) (UniProt Q06330). Put plainly: cell-based or functional assay.
Chain of centromere-binding factor 1 (CBF1) (human) (Q06330 whole entry): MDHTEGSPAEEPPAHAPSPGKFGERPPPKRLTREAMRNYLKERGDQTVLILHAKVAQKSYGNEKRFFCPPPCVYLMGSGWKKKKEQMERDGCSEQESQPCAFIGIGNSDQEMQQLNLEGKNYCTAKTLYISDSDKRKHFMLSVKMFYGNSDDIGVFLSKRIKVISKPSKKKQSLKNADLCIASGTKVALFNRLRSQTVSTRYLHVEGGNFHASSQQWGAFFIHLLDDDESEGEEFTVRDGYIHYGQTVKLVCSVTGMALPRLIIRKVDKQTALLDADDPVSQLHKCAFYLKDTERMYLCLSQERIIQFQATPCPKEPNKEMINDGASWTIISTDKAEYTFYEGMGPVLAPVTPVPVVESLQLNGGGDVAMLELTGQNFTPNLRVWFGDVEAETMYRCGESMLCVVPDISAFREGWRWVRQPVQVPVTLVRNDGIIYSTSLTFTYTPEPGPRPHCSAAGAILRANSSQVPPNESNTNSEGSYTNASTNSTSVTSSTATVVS

In turn, “Notch1 intracellular domain (NICD) (from UniProt P46531 1754-2555) (receptor)” showed a luciferase activity (CBF1 binding site reporter, wild-type/mutant, relative to beta-galactosidase) of 5 fold.
